Laboratory results taken from the supplement of paper PMC10567573.
± gives the standard deviation.

Assay: protein stability index of a GFP-peptide fusion (GPS, HEK-293T) (PSI 1-6); higher = more stable
[1] = treatment: DMSO, c terminus: a fixed tail appended
[2] = treatment: MLN4924 1 uM, 8 h, c terminus: a fixed tail appended
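Also: 24-mer peptide tiles fused after GFP, lentivirally expressed, FACS-sorted into six equal bins by GFP/DsRed ratio, decoded by Illumina sequencing, PSI is the read-weighted mean bin number.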

Sequence	protein stability index [1]	protein stability index [2]	protein stability index (treatment: DMSO, c terminus: native)	protein stability index (treatment: MLN4924 1 uM, 8 h, c terminus: native)
MVPHNLETTERMKCLYYLYATLDL [PDS5B]	2.14 ± 0.29	2.16 ± 0.38	–	–
EAFKKHSLDLLSKERELNGKLRHL [CCDC89]	3.34 ± 0.25	3.38 ± 0.14	–	–
VVPGDHLLEPEVADGGGAPPQGGC [KCNA3]	5.37 ± 0.14	5.29 ± 0.12	–	–
GDWIGLYRHFLKSPNFDGWFKTRR [DENND6A]	2.82 ± 0.038	2.49 ± 0.49	–	–
RMNDLHYLNLDTWEWNELIPQGIC [KLHDC2]	2.3 ± 0.58	2.31 ± 0.24	–	–
ENQSPSSSNYFSPRESTDFSSSSQ [ZBTB22]	5.12 ± 0.31	4.96 ± 0.34	–	–
SNSLSSAEPLKEDKPVTGPRNKTE [ATF6]	5.67 ± 0.1	5.59 ± 0.3	–	–
DEDEVAAEEPNAAVPDEIPPLEGD [HSP90AB1]	5.49 ± 0.47	5.61 ± 0.24	–	–
LKDIHDDQDYLHSLGKARTAQVQK [FLOT1]	4.67 ± 0.18	4.56 ± 0.24	–	–
PGASTEEVKRAFFSKSKELHPDRD [DNAJC4]	5.12 ± 0.28	5.18 ± 0.079	–	–
FSDHTFRHYAYLRDSLSHLVPALR [INTS4]	2.27 ± 0.18	2.36 ± 0.2	–	–
MMKPQAETGEAARDPSLRPARTVL	4.18 ± 0.13	4.33 ± 0.13	–	–
QGFRTVLELVINYQQLCIYWTKYY [OAS1]	2.96 ± 0.33	2.79 ± 0.51	–	–
GPGFHAGTSALWRHLRSAHRRELE [ZBED3]	2.73 ± 0.34	3.13 ± 0.53	–	–
VLDILTEQREWVLKSSILIAMAVY [INTS3]	2.57 ± 0.33	2.48 ± 0.61	–	–
HEDHMVNLRYGFTKEVMNKYKVHG [PPEF2]	3.24 ± 0.51	3.58 ± 0.53	–	–
RGDGGIYIGSIMKGGAVAADGRIE [DVL3]	3.65 ± 0.18	3.75 ± 0.21	–	–
TPASNHLPGWEDIESKIPLNMEEP [SLC19A2]	5.28 ± 0.21	5.44 ± 0.066	–	–
ERERLYPFSECGEAVSDSTPFLTN [ZNF263]	4.16 ± 0.16	4.11 ± 0.27	–	–
LNGSSQPTTRNYPELNNNQYNRSS [CDC14A]	4.19 ± 0.17	4.34 ± 0.09	–	–
GKSGLRVSCLGLGTWVTFGGQITD [KCNAB2]	2.2 ± 0.61	2.04 ± 0.64	–	–
LKYLHEQEILHRDLKLGNFFINEA [PLK2]	1.85 ± 0.18	1.97 ± 0.3	–	–

Sequence	protein stability index [1]	protein stability index [2]	protein stability index (treatment: DMSO, c terminus: native)	protein stability index (treatment: MLN4924 1 uM, 8 h, c terminus: native)
PENLLLASKSKGAAVKLADFGLAI [CAMK2D]	2.53 ± 0.38	2.13 ± 0.18	–	–
CQVEVRLLLAYNSSARIPKCPWME [INTS4]	3.21 ± 0.91	3.1 ± 0.25	–	–
SPPVPGPSAALTTMQLFSKQNPSR [FBXO28]	4.22 ± 0.42	4.33 ± 0.23	–	–
LPIQTPGAFLRTCLLSSNSRSLLT [TLE6]	2.06 ± 0.34	2.1 ± 0.19	–	–
EEDGGADEHEHPLTSELDPEKEQE [MIA2]	5.4 ± 0.57	5.5 ± 0.37	–	–
AMFLGDAAAHWYGGAEMRTQHWPI [MYORG]	2.41 ± 0.81	2.17 ± 0.25	–	–
ISLDVLQPSFPEILLESHMVMIRG [POMT2]	2.34 ± 0.39	2.41 ± 0.71	–	–
RRHLQFWKSHLKKVQKPLLQAPFL [RHOBTB1]	2.14 ± 0.51	1.59 ± 0.26	–	–
ILLEYCSRRSMAHILKARKVLTEP [PLK2]	2.48 ± 0.5	2.18 ± 0.33	–	–
GASTSCLLPVQVVTEHPLELIRVE [PCDHGC5]	3.12 ± 0.62	3.29 ± 0.37	–	–
VWVLMDEDVRIFFYQSPYDSEQVP [NCF4]	2.3 ± 0.71	2.33 ± 0.64	–	–
LRCGNQGKGWKATRLFHDSAVTSV [DCAF4]	2.19 ± 0.21	2.27 ± 0.22	–	–
TQATETTTTRHKRTANPSKTIDLG [CLINT1]	4.88 ± 0.09	5.05 ± 0.13	–	–
ESFTVHFLPLNSAQTLHHKSCYNG [DNAAF3]	2.4 ± 0.62	2.49 ± 0.42	–	–
RHRLITQVYLSHTAWTEACQVEVR [INTS4]	2.37 ± 0.15	2.43 ± 0.51	–	–
QFILRVSPDLEWHAACLKCAECSQ [ISL2]	2.16 ± 0.34	2.19 ± 0.34	–	–
SPPAAPCPPPPGPAAAPEGDWARL [ZBED3]	5.08 ± 0.16	5.07 ± 0.063	–	–
LQGTESLNRATQSIERSHRIATET [VTI1B]	4.65 ± 0.18	4.76 ± 0.14	–	–
PTGDVLLDEALKHVKETQPPETVQ [GOLPH3]	5.32 ± 0.1	5.21 ± 0.1	–	–
SRFVETLVVADDKMAAFHGAGLKR [ADAMTS4]	3.46 ± 0.089	4.26 ± 0.11	–	–
LVYLGDLSRYQNELAGVDTELLAE [SMG5]	2.51 ± 0.2	2.74 ± 0.11	–	–
GRCATRAFHRKSHSLDLNISEKLT [RNF180]	3.73 ± 0.43	3.63 ± 0.42	–	–

Sequence	protein stability index [1]	protein stability index [2]	protein stability index (treatment: DMSO, c terminus: native)	protein stability index (treatment: MLN4924 1 uM, 8 h, c terminus: native)
GGGSNNGKTPVCHQCHKVIRGRYL [PDLIM7]	2.81 ± 0.52	3.07 ± 0.42	–	–
VEINDLDPEVFKEMMRFIYTGRAP [SPOPL]	2.36 ± 0.33	2.05 ± 0.28	–	–
PSHLLLPPDTVSRTGLEKAAAGAV [SPDEF]	4.22 ± 0.33	4.26 ± 0.35	–	–
HYEFNLSRMKFRGNGALSNISDLP [LCOR]	2.7 ± 0.18	2.76 ± 0.23	–	–
FGKKEKGRLIQLSRDGATGHVLLT [PPFIA4]	2.71 ± 0.36	2.78 ± 0.2	–	–
LYSQLLQAYKWSNKLQYHAGLASG [MED27]	3.28 ± 0.55	2.67 ± 0.71	–	–
VELPMNSSNGNDNGNGKNGGLEHV [BNIP3L]	5.25 ± 0.17	5.23 ± 0.22	–	–
DFANTIPGHGGIMDRFDCQYLMAT [CDS1]	2.42 ± 0.21	2.63 ± 0.42	–	–
EILYPALPTDGSTGVELAPRSAEP [PCDHGA10]	4.57 ± 0.23	4.85 ± 0.1	–	–
YVPEKVKKAEKKLEENPYDLDAWS [CSTF3]	3.06 ± 0.62	3.26 ± 0.87	–	–
TFICYVASSASAFLTAPLLEFLLA [CMTM3]	3.36 ± 0.35	2.98 ± 0.39	–	–
CMFCNEEFLGNRSVILNHMAREHA [ZNF277]	3.62 ± 0.38	3.52 ± 0.46	–	–
TGEAGEELDLRLRLAQPSSPEVLT [RTN2]	4.9 ± 0.41	5.01 ± 0.29	–	–
GWLSVSDDLTSVTNHGYRVQVENP [TRIM35]	3.12 ± 0.17	3.24 ± 0.18	–	–
LGDTQFCFRFRQSSGRRVSLHCLL [DENND6A]	2.89 ± 0.48	2.65 ± 0.59	–	–
RASRTYELQNQLAACTRALESSEE [FSD1]	5.01 ± 0.2	4.92 ± 0.26	–	–
LIYTVMLAFRSGSDNLLVILKRKW [SLC35F2]	2.3 ± 0.91	1.84 ± 0.51	–	–
DTRLGQVSALPLPPAMKRYLLYQ [SPSB2]	–	–	2.4 ± 0.42	2.69 ± 0.3
GLEAASVYSDHTNTNNLTFLMDLP [RNF180]	3.13 ± 0.26	3.22 ± 0.3	–	–
DLPSSLLLPEDMALRNLPPLRAAH [SMG5]	3.56 ± 0.29	3.44 ± 0.16	–	–
IPSTPEEVSADDETPNPPQSAQIA [MAGEA10]	5.42 ± 0.1	5.44 ± 0.16	–	–
